# Numbering of substitutions follows the chain as printed.
# T1: B7-H3 on NCI-H446 cells (UniProt Q5ZPR3 29-534)
# T1 construct: whole, on cells
# T1 sequence (looked up): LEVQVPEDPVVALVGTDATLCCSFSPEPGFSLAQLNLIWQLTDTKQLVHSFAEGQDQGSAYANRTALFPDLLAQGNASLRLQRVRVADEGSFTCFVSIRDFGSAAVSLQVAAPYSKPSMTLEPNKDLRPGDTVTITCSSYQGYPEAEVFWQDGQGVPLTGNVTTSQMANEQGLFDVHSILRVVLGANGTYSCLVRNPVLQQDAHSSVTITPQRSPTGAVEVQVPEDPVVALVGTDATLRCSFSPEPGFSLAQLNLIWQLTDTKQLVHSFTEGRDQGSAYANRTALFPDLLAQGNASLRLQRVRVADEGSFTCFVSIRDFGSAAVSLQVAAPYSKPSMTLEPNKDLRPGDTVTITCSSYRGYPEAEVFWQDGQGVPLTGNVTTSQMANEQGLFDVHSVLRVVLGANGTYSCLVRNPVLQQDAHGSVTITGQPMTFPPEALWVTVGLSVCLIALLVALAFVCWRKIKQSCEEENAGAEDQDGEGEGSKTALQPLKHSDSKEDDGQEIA
# T2: B7-2 (UniProt P42081 26-247, limits assumed)
# T2 construct: not shown: His tag
# T2 sequence (looked up): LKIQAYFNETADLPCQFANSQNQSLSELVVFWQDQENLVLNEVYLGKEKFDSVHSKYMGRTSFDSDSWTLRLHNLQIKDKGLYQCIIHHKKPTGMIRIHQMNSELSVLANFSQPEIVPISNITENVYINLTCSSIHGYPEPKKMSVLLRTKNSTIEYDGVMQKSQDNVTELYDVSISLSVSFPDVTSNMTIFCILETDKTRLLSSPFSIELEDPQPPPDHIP
# T3: B7-H6 (UniProt Q68D85 25-262)
# T3 construct: not shown: His tag
# T3 sequence (looked up): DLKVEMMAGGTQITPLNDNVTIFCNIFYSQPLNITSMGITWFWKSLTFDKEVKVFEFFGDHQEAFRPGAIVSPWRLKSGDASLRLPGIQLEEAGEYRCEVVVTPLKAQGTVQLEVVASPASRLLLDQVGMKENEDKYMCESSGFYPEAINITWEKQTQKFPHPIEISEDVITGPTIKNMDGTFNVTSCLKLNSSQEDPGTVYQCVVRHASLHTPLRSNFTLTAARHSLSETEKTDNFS
# T4: B7-1 (UniProt P33681 35-242)
# T4 construct: not shown: His tag
# T4 sequence (looked up): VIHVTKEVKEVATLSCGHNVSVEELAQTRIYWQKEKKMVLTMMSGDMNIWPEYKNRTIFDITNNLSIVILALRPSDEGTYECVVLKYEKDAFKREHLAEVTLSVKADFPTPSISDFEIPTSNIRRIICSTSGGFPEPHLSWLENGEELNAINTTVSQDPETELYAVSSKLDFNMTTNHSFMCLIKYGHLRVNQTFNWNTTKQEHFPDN
# T5: B7-H5 (UniProt Q9H7M9 33-194)
# T5 construct: The name B7-H5 is ambiguous in the literature; not shown: His tag
# T5 sequence (looked up): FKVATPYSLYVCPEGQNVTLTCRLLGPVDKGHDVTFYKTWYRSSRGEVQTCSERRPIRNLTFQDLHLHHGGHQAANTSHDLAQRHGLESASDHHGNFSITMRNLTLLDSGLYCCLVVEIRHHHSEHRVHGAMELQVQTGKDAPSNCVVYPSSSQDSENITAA
# T6: B7-H7 (UniProt Q9UM44 23-344)
# T6 construct: not shown: His tag
# T6 sequence (looked up): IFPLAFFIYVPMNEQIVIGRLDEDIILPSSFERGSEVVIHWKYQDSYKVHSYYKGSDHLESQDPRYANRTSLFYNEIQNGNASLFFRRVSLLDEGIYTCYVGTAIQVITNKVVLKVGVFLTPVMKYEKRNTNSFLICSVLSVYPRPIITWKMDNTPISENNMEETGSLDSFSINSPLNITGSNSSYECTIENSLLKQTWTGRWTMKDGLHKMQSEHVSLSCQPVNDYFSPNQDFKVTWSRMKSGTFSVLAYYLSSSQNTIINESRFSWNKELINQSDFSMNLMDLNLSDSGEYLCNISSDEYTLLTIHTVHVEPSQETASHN
# T7: B7-H4 (UniProt Q7Z7D3 29-258, limits assumed)
# T7 construct: not shown: His tag
# T7 sequence (looked up): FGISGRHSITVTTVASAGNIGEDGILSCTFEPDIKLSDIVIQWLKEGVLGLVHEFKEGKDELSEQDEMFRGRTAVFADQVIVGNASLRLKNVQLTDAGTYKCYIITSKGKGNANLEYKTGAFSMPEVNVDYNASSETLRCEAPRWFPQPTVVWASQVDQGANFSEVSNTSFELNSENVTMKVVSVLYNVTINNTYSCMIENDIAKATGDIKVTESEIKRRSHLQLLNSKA
# T8: B7-H2 (UniProt O75144 19-258, limits assumed)
# T8 construct: not shown: His tag
# T8 sequence (looked up): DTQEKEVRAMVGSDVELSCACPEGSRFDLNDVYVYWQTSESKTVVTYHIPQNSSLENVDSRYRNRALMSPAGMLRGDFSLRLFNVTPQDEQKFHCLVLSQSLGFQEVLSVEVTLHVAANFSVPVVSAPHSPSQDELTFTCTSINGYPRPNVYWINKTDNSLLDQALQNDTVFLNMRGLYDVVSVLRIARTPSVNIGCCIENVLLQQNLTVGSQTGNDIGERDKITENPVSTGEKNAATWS
# T9: PD-L2 (UniProt Q9BQ51 20-219)
# T9 construct: not shown: His tag
# T9 sequence (looked up): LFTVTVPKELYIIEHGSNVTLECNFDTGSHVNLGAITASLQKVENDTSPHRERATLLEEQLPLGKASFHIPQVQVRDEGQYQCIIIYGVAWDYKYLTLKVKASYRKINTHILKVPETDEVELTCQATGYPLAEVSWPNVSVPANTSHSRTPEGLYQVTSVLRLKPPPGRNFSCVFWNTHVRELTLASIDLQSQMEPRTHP
# B1: cAb1-z3-p7 (antibody, human IgG1, kappa, V domains shown)
# VH: EVQLVESGGGLVKPGGSLRLSCAASGFTFSSYGMSWVRQAPGKRLEWVSSISGSGSYTYYPDSLKGRFTISRDNAKNSLYLQMNSLRAEDTAVYYCARQQGYWYFDVWGQGTTVTVSS
# VL: DVVMTQTPLSLPVTPGEPASISCRASQSLASSYGKTYLSWYLQKPGQSPQLLIYGISNRFSGVPDRFSGSGSGTDFTLKISRVEAEDVGVYYCLHGTHQPLTFGQGTKLEIKR
# notes: Humanized from 48-B4-F4-E4; Human IgG1 / kappa; also called cAbl-z3-p7
# B2: cAb1-z0-p7 (antibody, human IgG1, kappa, V domains shown)
# VH: B1 VH with R44G
# VL: B1 VL with V2I
# notes: Humanized from 48-B4-F4-E4; Human IgG1 / kappa
# B3: cAb1-z5-p7 (antibody, human IgG1, kappa, V domains shown)
# VH: B1 VH with S49A
# VL: B1 VL
# notes: Humanized from 48-B4-F4-E4; Human IgG1 / kappa; also called cAbl-z5-p7
# Molecular target: T10, B7-H3 Cyno-His (cynomolgus monkey)
# T10 construct: also called cynomolgus monkey B7-H3
# Assay: SPR, Biacore 8K, antibody captured by anti-human IgG Fc on CM5, B7-H3 Cyno-His as analyte, 1:1 model
Kd [nM],koff [s⁻¹],kon [M⁻¹ s⁻¹],Binder
3.87,5.82e-05,15100,B1
7.86,7.68e-05,9770,B2
3.9,6.17e-05,15800,B3

# Molecular target: T1, B7-H3 on NCI-H446 cells
# Assay: flow cytometry on NCI-H446 cells, goat anti-human Fc secondary
row,EC50 [nM],Binder
1,4.66,B1
2,9.7,B2
3,3.69,B3

# Molecular target: T2, B7-2
# Assay: ELISA, His-tagged antigen coated at 1 µg/mL, HRP-Protein A detection
row,Binder,binding result
1,B1,no binding (tested: starting concentration 10 µg/ml)
2,B2,no binding (tested: starting concentration 10 µg/ml)
3,B3,no binding (tested: starting concentration 10 µg/ml)

# Molecular target: T3, B7-H6
# Assay: as above
row,Binder,binding result
1,B1,no binding (tested: starting concentration 10 µg/ml)
2,B2,no binding (tested: starting concentration 10 µg/ml)
3,B3,no binding (tested: starting concentration 10 µg/ml)

# Molecular target: T4, B7-1
# Assay: as above
row,Binder,binding result
1,B1,no binding (tested: starting concentration 10 µg/ml)
2,B2,no binding (tested: starting concentration 10 µg/ml)
3,B3,no binding (tested: starting concentration 10 µg/ml)

# Molecular target: T5, B7-H5
# Assay: as above
row,Binder,binding result
1,B1,no binding (tested: starting concentration 10 µg/ml)
2,B2,no binding (tested: starting concentration 10 µg/ml)
3,B3,no binding (tested: starting concentration 10 µg/ml)

# Molecular target: T6, B7-H7
# Assay: as above
row,Binder,binding result
1,B1,no binding (tested: starting concentration 10 µg/ml)
2,B2,no binding (tested: starting concentration 10 µg/ml)
3,B3,no binding (tested: starting concentration 10 µg/ml)

# Molecular target: T7, B7-H4
# Assay: as above
row,Binder,binding result
1,B1,no binding (tested: starting concentration 10 µg/ml)
2,B2,no binding (tested: starting concentration 10 µg/ml)
3,B3,no binding (tested: starting concentration 10 µg/ml)

# Molecular target: T8, B7-H2
# Assay: as above
row,Binder,binding result
1,B1,no binding (tested: starting concentration 10 µg/ml)
2,B2,no binding (tested: starting concentration 10 µg/ml)
3,B3,no binding (tested: starting concentration 10 µg/ml)

# Molecular target: T9, PD-L2
# Assay: as above
row,Binder,binding result
1,B1,no binding (tested: starting concentration 10 µg/ml)
2,B2,no binding (tested: starting concentration 10 µg/ml)
3,B3,no binding (tested: starting concentration 10 µg/ml)

# Molecular target: T11, hB7-H1 (PD-L1) (human, UniProt Q9NZQ7 19-238)
# T11 construct: Species read from the printed prefix h; not shown: His tag
# T11 sequence (Q9NZQ7 19-238 limits assumed): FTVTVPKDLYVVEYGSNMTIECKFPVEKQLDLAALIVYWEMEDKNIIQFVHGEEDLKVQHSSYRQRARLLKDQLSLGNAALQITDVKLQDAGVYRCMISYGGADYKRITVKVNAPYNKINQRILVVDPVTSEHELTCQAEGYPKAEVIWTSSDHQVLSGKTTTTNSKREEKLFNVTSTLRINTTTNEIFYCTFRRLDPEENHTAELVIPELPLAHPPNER
# Assay: as above
row,Binder,binding result
1,B1,no binding (tested: starting concentration 10 µg/ml)
2,B2,no binding (tested: starting concentration 10 µg/ml)
3,B3,no binding (tested: starting concentration 10 µg/ml)
